Source: IntAct's records for PubMed 19918049

B1: Serine/threonine-protein kinase haspin (Homo sapiens), Q8TF76-1 (parent)
chain: MAASLPGPGSRLFRTYGAADGRRQRRPGREAAQWFPPQDRRRFFNSSGSSDASIGDPSQSDDPDDPDDPDFPGSPVRRRRRRPGGRVPKDRPSLTVTPKRWKLRARPSLTVTPRRLGLRARPPQKCSTPCGPLRLPPFPSRDSGRLSPDLSVCGQPRDGDELGISASLFSSLASPCPGSPTPRDSVISIGTSACLVAASAVPSGLHLPEVSLDRASLPCSQEEATGGAKDTRMVHQTRASLRSVLFGLMNSGTPEDSEFRADGKNMRESCCKRKLVVGNGPEGPGLSSTGKRRATGQDSCQERGLQEAVRREHQEASVPKGRIVPRGIDRLERTRSSRKSKHQEATETSLLHSHRFKKGQKLGKDSFPTQDLTPLQNVCFWTKTRASFSFHKKKIVTDVSEVCSIYTTATSLSGSLLSECSNRPVMNRTSGAPSSWHSSSMYLLSPLNTLSISNKKASDAEKVYGECSQKGPVPFSHCLPTEKLQRCEKIGEGVFGEVFQTIADHTPVAIKIIAIEGPDLVNGSHQKTFEEILPEIIISKELSLLSGEVCNRTEGFIGLNSVHCVQGSYPPLLLKAWDHYNSTKGSANDRPDFFKDDQLFIVLEFEFGGIDLEQMRTKLSSLATAKSILHQLTASLAVAEASLRFEHRDLHWGNVLLKKTSLKKLHYTLNGKSSTIPSCGLQVSIIDYTLSRLERDGIVVFCDVSMDEDLFTGDGDYQFDIYRLMKKENNNRWGEYHPYSNVLWLHYLTDKMLKQMTFKTKCNTPAMKQIKRKIQEFHRTMLNFSSATDLLCQHSLFK

Variants of: B1
Settings: with h32_mouse H3c13, P84228

Effect of a mutation on the interaction, decreasing interaction:
D707L
G713F
D709N
H651A
E492A
